These are literature values, as cited in publication PMC2996745.

The data set deals with VEGFR2 (flk-1) (Homo sapiens) (UniProt P35968).

pKd: −log10 of the molar value.

UniProt P35968, sequence (P35968 20-1356): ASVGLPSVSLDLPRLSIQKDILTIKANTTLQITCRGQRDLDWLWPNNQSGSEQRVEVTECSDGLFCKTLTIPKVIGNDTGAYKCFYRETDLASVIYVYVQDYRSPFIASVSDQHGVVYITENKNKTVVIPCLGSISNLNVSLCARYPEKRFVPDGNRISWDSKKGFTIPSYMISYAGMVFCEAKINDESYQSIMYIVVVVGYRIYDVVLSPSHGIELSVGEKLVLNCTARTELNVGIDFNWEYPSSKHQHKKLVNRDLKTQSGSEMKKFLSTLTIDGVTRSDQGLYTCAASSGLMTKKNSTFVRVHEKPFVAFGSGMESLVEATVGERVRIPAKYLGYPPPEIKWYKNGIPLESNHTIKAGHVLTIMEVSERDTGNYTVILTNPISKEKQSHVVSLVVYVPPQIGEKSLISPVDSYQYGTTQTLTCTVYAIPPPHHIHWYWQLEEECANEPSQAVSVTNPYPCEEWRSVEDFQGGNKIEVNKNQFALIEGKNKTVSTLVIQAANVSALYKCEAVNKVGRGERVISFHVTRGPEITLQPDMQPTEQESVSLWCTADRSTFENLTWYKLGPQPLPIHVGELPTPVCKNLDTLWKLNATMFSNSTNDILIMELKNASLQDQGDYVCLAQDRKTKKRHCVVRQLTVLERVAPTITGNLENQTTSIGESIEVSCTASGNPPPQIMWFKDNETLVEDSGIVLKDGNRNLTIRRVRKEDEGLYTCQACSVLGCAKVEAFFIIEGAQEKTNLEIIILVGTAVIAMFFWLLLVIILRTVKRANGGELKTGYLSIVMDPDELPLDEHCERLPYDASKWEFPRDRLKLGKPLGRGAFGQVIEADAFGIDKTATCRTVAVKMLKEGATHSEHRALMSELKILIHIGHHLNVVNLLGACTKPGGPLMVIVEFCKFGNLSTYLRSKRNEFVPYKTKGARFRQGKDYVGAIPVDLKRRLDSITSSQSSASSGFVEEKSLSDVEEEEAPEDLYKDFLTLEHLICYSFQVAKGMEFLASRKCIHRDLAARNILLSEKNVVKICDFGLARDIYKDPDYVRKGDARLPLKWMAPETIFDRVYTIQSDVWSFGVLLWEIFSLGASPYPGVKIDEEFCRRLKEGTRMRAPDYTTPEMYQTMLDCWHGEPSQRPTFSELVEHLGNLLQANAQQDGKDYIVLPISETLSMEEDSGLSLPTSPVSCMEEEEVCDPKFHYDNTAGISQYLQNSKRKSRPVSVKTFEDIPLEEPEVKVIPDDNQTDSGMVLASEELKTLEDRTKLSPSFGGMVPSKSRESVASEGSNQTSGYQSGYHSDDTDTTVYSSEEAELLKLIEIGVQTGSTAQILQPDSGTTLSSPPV

For the substance VEGF-A (from UniProt P15692), the pKd (usually the negative decadic logarithm of the Kd, by convention in mol/L) is 10.00.
